Laboratory results taken from paper PMC7641331, “Ctf18-RFC and DNA Pol ϵ form a stable leading strand polymerase/clamp loader complex required for normal and perturbed DNA replication” (Nucleic Acids Research, 2019).
Blank lines part the entries; values can stand above or below the molecule they belong to.

Columns and labels:
[1] = target: Pol2 1-528 (Saccharomyces cerevisiae) (UniProt P21951); conditions: cited from earlier work
[2] = target: Pol2CAT, the complete catalytic domain of Pol2 (residues 1–1192), exonuclease-deficient (D290A/E292A) (S. cerevisiae) (UniProt P21951); assay: ITC; 170 μM Ctf18-1-8 titrated into 25 μM Pol2CAT in the presence of 50 μM P1P2 DNA; 25°C; 20 mM HEPES pH 7.5, 160 mM NaCl, 1 mM TCEP; 1:1 hetero-association model
[3] = target: T1, Pol2CAT, the complete catalytic domain of Pol2 (residues 1–1192), exonuclease-deficient (D290A/E292A) (S. cerevisiae, UniProt P21951 1-1192, D290A | E292A); assay: cryo-EM structure; 2 μM Ctf18-1-8, Pol2CAT and P1P2* DNA in 20 mM HEPES pH 7.5, 160 mM NaCl, 1 mM TCEP; GraFix sucrose gradient with 0.15% glutaraldehyde; only DNA-free classes refined (Class 1 4.2 Å, Class 2 5.8 Å); conditions: both partners purified
T1 construct: Pol2, largest (catalytic) subunit of DNA Pol ϵ, S. cerevisiae, residues 1-1192; An iron-sulfur (4Fe4S) cluster is modelled in the structure; No tag cleavage step is described; also called POL2(1–1192)exo; Pol2 catalytic domain; source: E. coli BL21(DE3)Star, purified (Histrap, Superdex 200, MonoQ); not shown: His tag (from the Histrap column)
T1 sequence (looked up): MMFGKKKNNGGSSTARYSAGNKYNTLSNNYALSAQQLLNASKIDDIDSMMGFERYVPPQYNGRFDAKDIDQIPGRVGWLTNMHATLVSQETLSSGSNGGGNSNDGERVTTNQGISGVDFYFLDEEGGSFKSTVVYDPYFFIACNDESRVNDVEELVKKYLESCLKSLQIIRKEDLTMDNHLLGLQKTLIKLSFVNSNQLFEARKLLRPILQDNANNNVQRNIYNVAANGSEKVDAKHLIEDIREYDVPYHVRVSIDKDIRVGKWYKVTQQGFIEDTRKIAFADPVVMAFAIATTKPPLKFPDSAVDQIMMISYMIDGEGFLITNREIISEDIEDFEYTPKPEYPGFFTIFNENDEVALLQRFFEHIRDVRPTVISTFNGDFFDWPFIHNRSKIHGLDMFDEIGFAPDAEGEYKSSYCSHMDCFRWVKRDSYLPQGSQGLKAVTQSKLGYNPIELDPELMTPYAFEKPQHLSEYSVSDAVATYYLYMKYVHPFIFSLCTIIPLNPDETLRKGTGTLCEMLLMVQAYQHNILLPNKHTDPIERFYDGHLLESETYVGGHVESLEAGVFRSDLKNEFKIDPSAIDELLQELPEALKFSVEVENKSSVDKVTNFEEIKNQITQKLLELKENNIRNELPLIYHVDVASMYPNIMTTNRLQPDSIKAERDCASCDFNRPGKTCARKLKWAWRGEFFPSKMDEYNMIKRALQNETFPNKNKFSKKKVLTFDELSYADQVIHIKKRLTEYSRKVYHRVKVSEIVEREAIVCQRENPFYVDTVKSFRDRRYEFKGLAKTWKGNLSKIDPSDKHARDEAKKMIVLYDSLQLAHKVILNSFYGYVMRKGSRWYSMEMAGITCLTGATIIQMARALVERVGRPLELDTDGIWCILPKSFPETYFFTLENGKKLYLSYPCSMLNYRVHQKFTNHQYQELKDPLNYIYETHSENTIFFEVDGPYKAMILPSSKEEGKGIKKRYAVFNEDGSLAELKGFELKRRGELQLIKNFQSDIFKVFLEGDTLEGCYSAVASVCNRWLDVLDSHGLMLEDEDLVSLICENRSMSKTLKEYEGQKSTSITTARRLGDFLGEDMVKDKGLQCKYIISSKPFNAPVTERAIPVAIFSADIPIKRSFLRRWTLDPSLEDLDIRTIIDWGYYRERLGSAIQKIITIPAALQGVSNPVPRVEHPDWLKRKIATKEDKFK

[4] = target: T2, Pol2CAT (exonuclease-deficient DNA Pol epsilon catalytic domain) (UniProt P21951 1-1192, D290A;E292A); assay: EMSA; 50 nM DNA, no dNTP; EMSA: 25 mM HEPES pH 7.5, 60 mM KCl, 10% glycerol, 1 mM TCEP, 50 nM P1P2*, 20 min on ice, 6% Tris-glycine gel at 4 C; conditions: protein: recombinant; tags: N-terminal His (pETM14); label: 5' Cy3 on P1; 5' overhang 5 nt on P2 (template); 11 bp duplex
T2 sequence: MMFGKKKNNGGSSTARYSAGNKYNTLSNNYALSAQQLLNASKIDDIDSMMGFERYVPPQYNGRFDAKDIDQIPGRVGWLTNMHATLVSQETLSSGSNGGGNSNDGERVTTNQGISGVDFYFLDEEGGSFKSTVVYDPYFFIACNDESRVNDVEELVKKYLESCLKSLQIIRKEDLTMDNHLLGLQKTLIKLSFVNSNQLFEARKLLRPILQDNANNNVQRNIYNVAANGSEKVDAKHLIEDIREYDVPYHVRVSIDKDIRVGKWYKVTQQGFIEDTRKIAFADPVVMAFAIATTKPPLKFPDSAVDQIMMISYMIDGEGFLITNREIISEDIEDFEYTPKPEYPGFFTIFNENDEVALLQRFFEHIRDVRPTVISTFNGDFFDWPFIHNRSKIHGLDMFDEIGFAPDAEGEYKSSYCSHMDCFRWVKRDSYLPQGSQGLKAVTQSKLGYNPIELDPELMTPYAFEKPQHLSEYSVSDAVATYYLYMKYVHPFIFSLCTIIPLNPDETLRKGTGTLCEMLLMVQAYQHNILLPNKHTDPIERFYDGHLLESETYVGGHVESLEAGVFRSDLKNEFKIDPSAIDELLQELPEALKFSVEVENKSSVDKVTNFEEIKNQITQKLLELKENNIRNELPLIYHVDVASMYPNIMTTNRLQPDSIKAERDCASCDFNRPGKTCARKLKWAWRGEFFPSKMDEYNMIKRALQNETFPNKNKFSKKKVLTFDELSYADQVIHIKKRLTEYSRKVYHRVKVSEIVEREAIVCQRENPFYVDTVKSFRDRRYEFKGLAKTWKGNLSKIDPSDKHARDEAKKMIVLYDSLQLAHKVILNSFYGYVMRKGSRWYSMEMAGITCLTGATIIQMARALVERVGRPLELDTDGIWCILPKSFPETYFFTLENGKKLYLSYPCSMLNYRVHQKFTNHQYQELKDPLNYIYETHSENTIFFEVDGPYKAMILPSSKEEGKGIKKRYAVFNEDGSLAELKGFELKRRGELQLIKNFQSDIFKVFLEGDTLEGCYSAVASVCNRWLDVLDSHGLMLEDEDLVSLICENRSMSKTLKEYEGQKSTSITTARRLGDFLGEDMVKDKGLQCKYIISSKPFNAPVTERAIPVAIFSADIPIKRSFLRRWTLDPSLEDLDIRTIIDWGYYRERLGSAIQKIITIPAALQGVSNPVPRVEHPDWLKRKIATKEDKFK

[5] = target: Pol2CAT (exonuclease-deficient DNA Pol epsilon catalytic domain);Ctf18-1-8 wild type (Ctf18 C-terminal … (Saccharomyces cerevisiae?;Saccharomyces …, UniProt P21951;P49956;P25559;P38877 1-1192;666-741;1-380;1-133, D290A;E292A|)); assay: EMSA supershift; 50 nM DNA; supershift saturated at 125 nM Ctf18-1-8 (lowest tested); DNA binding identical to Pol2CAT alone; EMSA: 25 mM HEPES pH 7.5, 60 mM KCl, 10% glycerol, 1 mM TCEP, 50 nM P1P2*, 20 min on ice, 6% Tris-glycine gel at 4 C; conditions: protein: recombinant;recombinant; tags: N-terminal His (pETM14); copies: 1;1;1;1; label: 5' Cy3 on P1; 5' overhang 5 nt on P2 (template); 11 bp duplex
Sequence of Pol2CAT (exonuclease-deficient DNA Pol epsilon catalytic domain);Ctf18-1-8 wild type (Ctf18 C-terminal … (P49956 666-741, chain 2 of 2): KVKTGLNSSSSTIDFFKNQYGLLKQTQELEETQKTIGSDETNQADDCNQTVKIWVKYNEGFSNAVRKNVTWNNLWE
Sequence of Pol2CAT (exonuclease-deficient DNA Pol epsilon catalytic domain);Ctf18-1-8 wild type (Ctf18 C-terminal … (P38877 whole entry, chain 4 of 2, the tested form may be a part): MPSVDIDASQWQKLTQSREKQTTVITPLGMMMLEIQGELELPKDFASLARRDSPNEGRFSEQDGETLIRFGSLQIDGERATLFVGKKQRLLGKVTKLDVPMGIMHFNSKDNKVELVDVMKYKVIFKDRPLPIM

Molecule: Ctf18-1-8 (from UniProt P49956)
Kd [1]: 1300 nM

B2: P1P2* primer-template (dsDNA)
DNA 1: TAACCGCGTTC
DNA 2: CTCTTGAACGCGGTTA
binding result [4]: binds
binding result [5]: binds

Further lines, results first:

Kd [2]: 40 nM
Molecule: Ctf18-1-8 module (C-terminus of Ctf18 with Dcc1 and Ctf8), wild type (from UniProt P49956 1-741; P25559 1-380; P38877 1-133) (complex)

binding result [3]: binds
B1: Dcc1 (chain of the recombinant Ctf18-1-8 module) (natural protein, S. cerevisiae)
chain: MSINLHSAPEYDPSYKLIQLTPELLDIIQDPVQNHQLRFKSLDKDKSEVVLCSHDKTWVLKQRKHSNTVLLMREFVPEQPITFDETLLFGLSKPYMDVVGFAKTESEFETRETHGELNLNSVPIYNGELDFSDKIMKRSSTKVIGTLEELLENSPCSALEGISKWHKIGGSVKDGVLCILSQDFLFKALHVLLMSAMAESLDLQHLNVEDTHHAVGKDIEDEFNPYTREIIETVLNKFAVQEQEAENNTWRLRIPFIAQWYGIQALRKYVSGISMPIDEFLIKWKSLFPPFFPCDIDIDMLRGYHFKPTDKTVQYIAKSTLPMDPKERFKVLFRLQSQWDLEDIKPLIEELNSRGMKIDSFIMKYARRKRLGKKTVVTSR
notes: Dcc1, S. cerevisiae; The Dcc1 chain of m2, written alone for the pairs that touch in the structures; also called Dcc1WH3 (its last winged helix domain)
